Target: human NGF (Homo sapiens, UniProt P01138)
Assay: binding affinity; method not given

human NGF, sequence (P01138 122-241 limits assumed): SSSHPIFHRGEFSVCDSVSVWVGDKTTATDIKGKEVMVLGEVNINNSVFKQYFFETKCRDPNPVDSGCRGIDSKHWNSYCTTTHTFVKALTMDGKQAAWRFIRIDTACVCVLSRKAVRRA

B1: humanized anti-NGF antibody E3 (antibody, V domains shown)
VH: VQLQESGPGLVKLPSETLSLTCTVSGFSLIGYDLNWIRQPPGKGLEWIGIIWGDGTTDYNSAVKSRVTISKDTSKNQFSLKLSSVTAADTAVYYCARGGYWYATSYYFDYWGQGTLVTVS
VL: DIQMTQSPSSLSASVGDRVTITCRASQSISNNLNWYQQKPGKAPKLLIYYTSRFHSGVPSRFSGSGSGTDFTFTISSLQPEDIATYYCQQEHTLPYTFGQGTKLEIK
Kd: 0.07 nM

From patent publication US20040131615A1, “Methods for treating pain by administering a nerve growth factor antagonist and an opioid analgesic and compositions containing the same” (priority 2002, published 2004)
